The values below come from PMC7287642, “SPR Biosensor Based on Polymer Multi-Mode Optical Waveguide and Nanoparticle Signal Enhancement”.

This data set has as its target T1, C-reactive protein (CRP) (human, UniProt P02741 19-224).
T1 sequence: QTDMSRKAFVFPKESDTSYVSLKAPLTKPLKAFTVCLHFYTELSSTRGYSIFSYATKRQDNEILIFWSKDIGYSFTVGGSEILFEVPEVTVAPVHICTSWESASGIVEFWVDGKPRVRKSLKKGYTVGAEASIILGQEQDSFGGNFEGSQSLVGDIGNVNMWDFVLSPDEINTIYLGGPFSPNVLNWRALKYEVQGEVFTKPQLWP
Put plainly: SPR (AuNP-enhanced aptamer sandwich); Apt1 on sensor and on 17 nm AuNPs; 2 mM Ca2+, 10 mM Mg2+; response 0.118 nm/nM; no shift detected with CRP alone before AuNPs; 10 mM Tris, 50 mM NaCl, 2 mM CaCl2, 10 mM MgCl2, 5 mM KCl, pH 7.5; CRP 30 min, AuNPs 10 min; readout in H2O; binding temperature not stated. The conditions noted are these: protein: native; chain copies: 5.

B1: Apt1 (anti-CRP aptamer) (ssDNA)
DNA: GGCAGGAAGACAAACACGATGGGGGGGTATGATTTGATGTGGTTGTTGCATGATCGTGGTTGTGGTGCTGT
modifications: 5'-biotin
As to B1, the binding result is on record as “binds”.
